Data published in IntAct's records for PubMed 23478064.

B1: Eukaryotic translation initiation factor 4 gamma 2 (Homo sapiens), P78344-1 (parent)
chain: MESAIAEGGASRFSASSGGGGSRGAPQHYPKTAGNSEFLGKTPGQNAQKWIPARSTRRDDNSAANNSANEKERHDAIFRKVRGILNKLTPEKFDKLCLELLNVGVESKLILKGVILLIVDKALEEPKYSSLYAQLCLRLAEDAPNFDGPAAEGQPGQKQSTTFRRLLISKLQDEFENRTRNVDVYDKRENPLLPEEEEQRAIAKIKMLGNIKFIGELGKLDLIHESILHKCIKTLLEKKKRVQLKDMGEDLECLCQIMRTVGPRLDHERAKSLMDQYFARMCSLMLSKELPARIRFLLQDTVELREHHWVPRKAFLDNGPKTINQIRQDAVKDLGVFIPAPMAQGMRSDFFLEGPFMPPRMKMDRDPLGGLADMFGQMPGSGIGTGPGVIQDRFSPTMGRHRSNQLFNGHGGHIMPPTQSQFGEMGGKFMKSQGLSQLYHNQSQGLLSQLQGQSKDMPPRFSKKGQLNADEISLRPAQSFLMNKNQVPKLQPQITMIPPSAQPPRTQTPPLGQTPQLGLKTNPPLIQEKPAKTSKKPPPSKEELLKLTETVVTEYLNSGNANEAVNGVREMRAPKHFLPEMLSKVIILSLDRSDEDKEKASSLISLLKQEGIATSDNFMQAFLNVLDQCPKLEVDIPLVKSYLAQFAARAIISELVSISELAQPLESGTHFPLFLLCLQQLAKLQDREWLTELFQQSKVNMQKMLPEIDQNKDRMLEILEGKGLSFLFPLLKLEKELLKQIKLDPSPQTIYKWIKDNISPKLHVDKGFVNILMTSFLQYISSEVNPPSDETDSSSAPSKEQLEQEKQLLLSFKPVMQKFLHDHVDLQVSALYALQVHCYNSNFPKGMLLRFFVHFYDMEIIEEEAFLAWKEDITQEFPGKGKALFQVNQWLTWLETAEEEESEEEAD

Variants of: B1
Conditions: with if4a1_human EIF4A1, P60842
Sequence of if4a1_human EIF4A1, P60842 (P60842 whole entry): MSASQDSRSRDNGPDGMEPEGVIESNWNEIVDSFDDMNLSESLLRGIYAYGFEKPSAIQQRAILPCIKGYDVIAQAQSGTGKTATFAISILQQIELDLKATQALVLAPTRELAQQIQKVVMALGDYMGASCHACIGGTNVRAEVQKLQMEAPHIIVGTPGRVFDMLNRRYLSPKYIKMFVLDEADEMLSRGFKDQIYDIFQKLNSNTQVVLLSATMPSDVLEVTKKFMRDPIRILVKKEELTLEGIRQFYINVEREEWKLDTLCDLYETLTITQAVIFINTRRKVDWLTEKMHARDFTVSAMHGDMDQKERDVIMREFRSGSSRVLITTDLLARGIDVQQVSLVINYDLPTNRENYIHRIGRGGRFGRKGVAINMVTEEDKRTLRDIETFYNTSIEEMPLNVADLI

Effect of a mutation on the interaction, disrupting interaction strength:
E125K
N86A
F296A
